Experimental findings from US20150202161A1, “PROCESS FOR MANUFACTURING DRUG DELIVERY FORMULATIONS” (O-RAY PHARMA, INC., priority 2012, published 2015) are described below.

This data set in a line: In vitro release (dissolution) of Infliximab from packed silicone cup and of lyophilized powder. To be noted: release into 600 μl water with stirring at room temperature (23° C.); UV absorption at 280 nm. In kind it is physicochemical. As for the experimental part: A solid drug pellet (FIG. 4, 402.) was created by mixing 75% infliximab with 25% hydroxy propyl methyl cellulose (HPMC). This solid pellet was packed into a silicone cup (FIG. 1, 101.). The drug can only release from one end of the silicone and this end is subsequently coated with a controlled release polymer formulation of 5 μl of 10% polylactic acid (FIG. 1, 107.) to control its release. Dissolution studies were performed with lyophilized infliximab powder and infliximab packed extended release formulations. For each sample, release into 600 μl water was carried out with stirring at room temperature (23° C.). Aliquots were removed at timed intervals and analyzed with UV absorption spectroscopy at 280 nm using a Spectramax Plus384 96 well plate reader.

Regarding “Lyophilized infliximab powder: TNF-α inhibitor infliximab as unformulated lyophilized powder, comparator in dissolution study”, the “release upon addition to solvent” value is “releases almost immediately”.
